Source: article PMC4008574 (PLoS ONE, 2014)
One block for each molecule: values may come before it. Ends that are not written are not given here.

Key:
[1] = target: Integrin αvβ3 (Homo sapiens) (UniProt P06756); conditions: cited from earlier work
[2] = target: T1, chemokine domain of fractalkine (FKN-CD), wild type (UniProt P78423 25-100); assay: ELISA; FKN-CD, γC399tr, FN-H120 or FN8-11 coated on wells (5 µM in Figure 4d; GST removed from FN-H120 and FN8-11); GST-tagged S2 peptides added in PBS, 2 h at room temperature; detected with HRP-conjugated anti-GST antibody; conditions: both partners purified
T1 construct: fractalkine (CX3CL1), N-terminal chemokine domain, printed as residues 1-76; The limits 1-76 are printed for the chemokine domain in general (introduction); also called WT FKN-CD; CX3CL1
T1 sequence (looked up): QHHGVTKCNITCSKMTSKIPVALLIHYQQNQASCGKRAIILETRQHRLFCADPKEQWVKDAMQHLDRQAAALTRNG

Chain of Integrin αvβ3 (Homo sapiens) (P06756 31-992, chain 1 of 2): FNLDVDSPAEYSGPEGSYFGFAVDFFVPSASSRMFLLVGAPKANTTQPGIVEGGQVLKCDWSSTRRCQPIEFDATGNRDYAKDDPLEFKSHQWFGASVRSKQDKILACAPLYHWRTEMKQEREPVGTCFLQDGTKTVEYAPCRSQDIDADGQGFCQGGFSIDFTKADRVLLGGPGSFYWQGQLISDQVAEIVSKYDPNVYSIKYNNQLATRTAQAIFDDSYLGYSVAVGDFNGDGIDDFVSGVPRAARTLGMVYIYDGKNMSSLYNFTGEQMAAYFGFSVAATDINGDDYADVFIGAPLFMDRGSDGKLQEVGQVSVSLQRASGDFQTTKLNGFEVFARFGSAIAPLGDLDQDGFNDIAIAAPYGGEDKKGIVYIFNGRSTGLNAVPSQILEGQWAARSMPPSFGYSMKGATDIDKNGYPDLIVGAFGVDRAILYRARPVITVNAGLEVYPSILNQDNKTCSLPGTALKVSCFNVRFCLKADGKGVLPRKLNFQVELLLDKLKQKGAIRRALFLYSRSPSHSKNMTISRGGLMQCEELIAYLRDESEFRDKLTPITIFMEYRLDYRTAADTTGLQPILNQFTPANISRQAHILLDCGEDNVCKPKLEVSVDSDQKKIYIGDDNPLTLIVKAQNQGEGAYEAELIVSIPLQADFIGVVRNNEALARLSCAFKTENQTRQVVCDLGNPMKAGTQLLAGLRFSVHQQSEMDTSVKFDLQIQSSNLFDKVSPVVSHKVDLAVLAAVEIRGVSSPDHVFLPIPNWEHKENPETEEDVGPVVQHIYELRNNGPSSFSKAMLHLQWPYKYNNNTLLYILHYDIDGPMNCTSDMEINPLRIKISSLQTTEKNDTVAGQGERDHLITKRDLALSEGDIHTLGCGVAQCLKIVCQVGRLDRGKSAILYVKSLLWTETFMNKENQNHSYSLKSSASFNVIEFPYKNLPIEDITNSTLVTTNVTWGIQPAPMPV
Chain of Integrin αvβ3 (Homo sapiens) (P05106 27-718, chain 2 of 2, further chain): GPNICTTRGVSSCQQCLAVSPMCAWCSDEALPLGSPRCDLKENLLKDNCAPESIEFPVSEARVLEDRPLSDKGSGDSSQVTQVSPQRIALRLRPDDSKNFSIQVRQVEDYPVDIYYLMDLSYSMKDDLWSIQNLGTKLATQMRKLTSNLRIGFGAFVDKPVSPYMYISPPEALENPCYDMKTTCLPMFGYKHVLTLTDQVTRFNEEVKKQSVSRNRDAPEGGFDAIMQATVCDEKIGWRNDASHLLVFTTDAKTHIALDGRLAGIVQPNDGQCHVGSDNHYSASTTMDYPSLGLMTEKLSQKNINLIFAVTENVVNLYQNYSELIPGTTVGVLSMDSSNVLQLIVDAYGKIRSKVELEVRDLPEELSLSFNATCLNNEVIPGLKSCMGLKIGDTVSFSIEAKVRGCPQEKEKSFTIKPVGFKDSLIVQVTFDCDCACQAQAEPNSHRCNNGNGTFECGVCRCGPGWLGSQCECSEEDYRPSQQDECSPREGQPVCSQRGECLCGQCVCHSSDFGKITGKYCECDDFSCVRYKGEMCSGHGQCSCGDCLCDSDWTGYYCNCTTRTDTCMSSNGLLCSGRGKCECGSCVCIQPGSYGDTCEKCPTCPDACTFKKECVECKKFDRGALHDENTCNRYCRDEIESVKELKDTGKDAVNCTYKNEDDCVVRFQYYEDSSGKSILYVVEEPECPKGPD

Molecule: Fractalkine chemokine domain (from UniProt P78423)
Kd [1]: 0.3 nM

binding result [2]: binds
B1: GST fusion protein of site 2 peptide of integrin β3 (S2-β3 peptide) (peptide)
chain: QPNDGQSHVGSDNHYSASTTM
modifications: also: GST fusion protein
notes: The 6His tag was put into the BamHI site of pGEX-2T and the peptide's oligonucleotides into the BamHI/EcoRI site of the resulting vector; also called S2 peptide
